In PMC5054401:

Assays:
[1] = HeLa subcellular fractionation, anti-Flag western
[2] = anti-Flag immunofluorescence, nucleus/cytoplasm densitometry; settings: glycan lost
[3] = OGT enzyme activity (Supplementary Fig. 5a,b); settings: glycan lost; control: WT-OGT

B1: O-GlcNAc transferase (OGT): Mono-OGT S389A (protein)
parent chain: MASSVGNVADSTGLAELAHREYQAGDFEAAERHCMQLWRQEPDNTGVLLLLSSIHFQCRRLDRSAHFSTLAIKQNPLLAEAYSNLGNVYKERGQLQEAIEHYRHALRLKPDFIDGYINLAAALVAAGDMEGAVQAYVSALQYNPDLYCVRSDLGNLLKALGRLEEAKACYLKAIETQPNFAVAWSNLGCVFNAQGEIWLAIHHFEKAVTLDPNFLDAYINLGNVLKEARIFDRAVAAYLRALSLSPNHAVVHGNLACVYYEQGLIDLAIDTYRRAIELQPHFPDAYCNLANALKEKGSVAEAEDCYNTALRLCPTHADSLNNLANIKREQGNIEEAVRLYRKALEVFPEFAAAHSNLASVLQQQGKLQEALMHYKEAIRISPTFADAYSNMGNTLKEMQDVQGALQCYTRAIQINPAFADAHSNLASIHKDSGNIPEAIASYRTALKLKPDFPDAYCNLAHCLQIVCDWTDYDERMKKLVSIVADQLEKNRLPSVHPHHSMLYPLSHGFRKAIAERHGNLCLDKINVLHKPPYEHPKDLKLSDGRLRVGYVSSDFGNHPTSHLMQSIPGMHNPDKFEVFCYALSPDDGTNFRVKVMAEANHFIDLSQIPCNGKAADRIHQDGIHILVNMNGYTKGARNELFALRPAPIQAMWLGYPGTSGALFMDYIITDQETSPAEVAEQYSEKLAYMPHTFFIGDHANMFPHLKKKAVIDFKSNGHIYDNRIVLNGIDLKAFLDSLPDVKIVKMKCPDGGDNADSSNTALNMPVIPMNTIAEAVIEMINRGQIQITINGFSISNGLATTQINNKAATGEEVPRTIIVTTRSQYGLPEDAIVYCNFNQLYKIDPSTLQMWANILKRVPNSVLWLLRFPAVGEPNIQQYAQNMGLPQNRIIFSPVAPKEEHVRRGQLADVCLDTPLCNGHTTGMDVLWAGTPMVTMPGETLASRVAASQLTCLGCLELIAKNRQEYEDIAVKLGTDLEYLKKVRGKVWKQRISSPLFNTKQYTMELERLYLQMWEHYAAGNKPDHMIKPVEVTESA
localisation_or_trafficking ([1]; glycan lost, control: Mono-OGT): decreases | localisation_or_trafficking ([2]; control: Mono-OGT): decreases

B2: O-GlcNAc transferase (OGT): OGT S389A (protein)
parent chain: B1 parent chain
enzymatic_activity [3]: no change

B3: O-GlcNAc transferase (OGT): 5-thio-GlcNAc (protein)
parent chain: B1 parent chain
localisation_or_trafficking ([1]; glycan lost, control: untreated cells): decreases | localisation_or_trafficking ([2]; control: untreated cells): decreases

B4: O-GlcNAc transferase (OGT): Thiamet-G (protein)
parent chain: B1 parent chain
localisation_or_trafficking ([1]; glycan gained, control: untreated cells): increases
